According to paper PMC10397247:

What was measured:
4H492-bH = molecular target: T1, 4H492-bH; experiment: two-hybrid library CCNG1;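 note: natural log of median RNA to DNA barcode read ratio; higher means stronger binding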
T1 chain: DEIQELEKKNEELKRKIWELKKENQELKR

4H3277-bH = molecular target: T2, 4H3277-bH; experiment: two-hybrid library CCNG1;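 note: natural log of median RNA to DNA barcode read ratio; higher means stronger binding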
T2 chain: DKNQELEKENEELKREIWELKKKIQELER

4H2915-bH = molecular target: T3, 4H2915-bH; experiment: two-hybrid library CCNG1;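 note: natural log of median RNA to DNA barcode read ratio; higher means stronger binding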
T3 chain: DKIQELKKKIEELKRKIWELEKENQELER

4H3057-bH = molecular target: T4, 4H3057-bH; experiment: two-hybrid library CCNG1;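 note: natural log of median RNA to DNA barcode read ratio; higher means stronger binding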
T4 chain: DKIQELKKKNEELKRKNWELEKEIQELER

4H2839-bH = molecular target: T5, 4H2839-bH; experiment: two-hybrid library CCNG1;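 note: natural log of median RNA to DNA barcode read ratio; higher means stronger binding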
T5 chain: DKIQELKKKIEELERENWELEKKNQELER

4H319-bH = molecular target: T6, 4H319-bH; experiment: two-hybrid library CCNG1;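 note: natural log of median RNA to DNA barcode read ratio; higher means stronger binding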
T6 chain: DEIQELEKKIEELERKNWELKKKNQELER

4H477-bH = molecular target: T7, 4H477-bH; experiment: two-hybrid library CCNG1
T7 chain: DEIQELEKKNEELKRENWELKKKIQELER

4H40-bH = molecular target: T8, 4H40-bH; experiment: two-hybrid library CCNG1
T8 chain: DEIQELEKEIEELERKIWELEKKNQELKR

4H741-bH = molecular target: T9, 4H741-bH; experiment: two-hybrid library CCNG1
T9 chain: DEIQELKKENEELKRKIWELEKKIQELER

4H2717-bH = molecular target: T10, 4H2717-bH; experiment: two-hybrid library CCNG1
T10 chain: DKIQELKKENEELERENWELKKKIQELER

4H348-bH = molecular target: T11, 4H348-bH; experiment: two-hybrid library CCNG1
T11 chain: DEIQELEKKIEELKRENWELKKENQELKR

4H2692-bH = molecular target: T12, 4H2692-bH; experiment: two-hybrid library CCNG1
T12 chain: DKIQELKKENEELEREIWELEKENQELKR

4H510-AA = molecular target: T13, 4H510-AA; experiment: two-hybrid library CCmax; conditions: mean of both orientations
T13 chain: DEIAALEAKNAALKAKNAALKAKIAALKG

4H2888-AA = molecular target: T14, 4H2888-AA; experiment: two-hybrid library CCmax
T14 chain: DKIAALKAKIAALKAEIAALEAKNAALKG

O13-AA = molecular target: T15, O13-AA; experiment: two-hybrid library CCmax; conditions: mean of both orientations
T15 chain: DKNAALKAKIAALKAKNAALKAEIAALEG

4H_APH = molecular target: T16, 4H_APH; experiment: two-hybrid library CCmax; conditions: mean of both orientations
T16 chain: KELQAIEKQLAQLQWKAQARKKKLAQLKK

4H43-AA = molecular target: T17, 4H43-AA; experiment: two-hybrid library CCmax; conditions: mean of both orientations
T17 chain: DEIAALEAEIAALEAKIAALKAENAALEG

4H_GCN4 = experiment: two-hybrid library CCmax
4H_GCN4, sequence (chain, as listed by the source): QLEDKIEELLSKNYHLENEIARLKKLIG

4H451-AA = molecular target: T18, 4H451-AA; experiment: two-hybrid library CCmax; conditions: mean of both orientations
T18 chain: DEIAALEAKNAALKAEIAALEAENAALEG

4H3625-AA = molecular target: T19, 4H3625-AA; experiment: two-hybrid library CCmax; conditions: mean of both orientations
T19 chain: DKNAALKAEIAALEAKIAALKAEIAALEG

O14-AA = molecular target: T20, O14-AA; experiment: two-hybrid library CCmax; conditions: mean of both orientations
T20 chain: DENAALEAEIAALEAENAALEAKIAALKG

4H337-AA = molecular target: T21, 4H337-AA; experiment: two-hybrid library CCmax; conditions: mean of both orientations
T21 chain: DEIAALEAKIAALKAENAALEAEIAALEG

O11-AA = molecular target: T22, O11-AA; experiment: two-hybrid library CCmax; conditions: mean of both orientations
T22 chain: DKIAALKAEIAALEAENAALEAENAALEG

4H3049-AA = molecular target: T23, 4H3049-AA; experiment: two-hybrid library CCmax; conditions: mean of both orientations
T23 chain: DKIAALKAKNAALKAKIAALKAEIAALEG

4H4038-AA = molecular target: T24, 4H4038-AA; experiment: two-hybrid library CCmax; conditions: mean of both orientations
T24 chain: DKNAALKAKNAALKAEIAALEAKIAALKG

4H384-AA = molecular target: T25, 4H384-AA; experiment: two-hybrid library CCmax; conditions: mean of both orientations
T25 chain: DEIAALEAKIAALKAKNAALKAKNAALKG

GCN2_T = experiment: two-hybrid library CCmax; conditions: mean of both orientations
4H_BCR = molecular target: T26, 4H_BCR; experiment: two-hybrid library CCmax; conditions: mean of both orientations
T26 chain: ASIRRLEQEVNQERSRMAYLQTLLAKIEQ

4H3587-AA = molecular target: T27, 4H3587-AA; experiment: two-hybrid library CCmax; conditions: mean of both orientations
T27 chain: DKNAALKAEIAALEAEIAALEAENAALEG

4H3590-AA = molecular target: T28, 4H3590-AA; experiment: two-hybrid library CCmax; conditions: mean of both orientations
T28 chain: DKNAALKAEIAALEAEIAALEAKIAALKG

4H3905-AA = molecular target: T29, 4H3905-AA; experiment: two-hybrid library CCmax; conditions: mean of both orientations
T29 chain: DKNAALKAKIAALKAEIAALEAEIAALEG

B1: 4H2692-bH (peptide)
chain: DKIQELKKENEELEREIWELEKENQELKR
4H492-bH
  interaction score: 1.54
4H3277-bH
  interaction score: -0.368
4H2915-bH
  interaction score: 0.971
4H3057-bH
  interaction score: -0.0522
4H2839-bH
  interaction score: -0.447
4H319-bH
  interaction score: -1.1
4H477-bH
  interaction score: -0.436
4H40-bH
  interaction score: 0.218
4H741-bH
  interaction score: -1.04
4H2717-bH
  interaction score: -0.125
4H348-bH
  interaction score: -0.787
4H2692-bH
  interaction score: 0.733

B2: 4H2888-AA (peptide)
chain: DKIAALKAKIAALKAEIAALEAKNAALKG
4H510-AA
  interaction score: -1.56
4H2888-AA
  interaction score: 1.12
O13-AA
  interaction score: -0.966
4H_APH
  interaction score: -2.17
4H43-AA
  interaction score: 1.89
4H_GCN4
  interaction score: -1.53
4H451-AA
  interaction score: -0.857
4H3625-AA
  interaction score: 1.63
O14-AA
  interaction score: 1.71
4H337-AA
  interaction score: 1.21
O11-AA
  interaction score: 0.766
4H3049-AA
  interaction score: -0.982
4H4038-AA
  interaction score: 0.103
4H384-AA
  interaction score: -0.941
GCN2_T
  interaction score: -1.24
4H_BCR
  interaction score: -2.06
4H3587-AA
  interaction score: 1.25
4H3590-AA
  interaction score: 2.23
4H3905-AA
  interaction score: 1.91
